Positions count from the first letter of the chain named.
What was measured:
[1] = target: T1, human CD137 displayed on yeast cells (human, UniProt Q07011 24-186, limits assumed); assay: flow cytometry on yeast cells displaying human CD137, PE anti-human Fc (column head prints EC50 over KD (nM))
T1 construct: Yeast cells displaying human CD137 on their surface; also called human CD137 on the cell surface
Experimental: (§1) The masking efficiency was then measured through flow cytometry. Briefly, yeast cells displaying human CD137 on their surface washed twice with PBSA buffer, and 50 μL (1×10\hat{ }6) cells were dispensed into each well of a 96 well plate. Cells were then incubated with 3-fold serial dilutions of antibodies for 1 hour on ice, washed once with PBSA buffer, and then incubated with 100 μL of PE conjugated mouse anti-human Fc (1 μg/ml) for 30 minutes on ice. The cells were then washed once prior to analysis by flow cytometry (Beckman® CytoFlex).

[2] = target: T1, human CD137 displayed on yeast cells; assay: flow cytometry on yeast cells displaying human CD137, PE anti-human Fc
Experimental: as §1

[3] = target: T2, Recombinant human CTLA4-Fc (human, UniProt P16410 36-161, limits assumed); assay: ELISA on plate-coated recombinant human CTLA4-Fc as in Example 3 (FIG. 24B)
T2 construct: Coated on the ELISA plate at 1 ug/mL; also called its antigen; not shown: Fc part
T2 sequence (looked up): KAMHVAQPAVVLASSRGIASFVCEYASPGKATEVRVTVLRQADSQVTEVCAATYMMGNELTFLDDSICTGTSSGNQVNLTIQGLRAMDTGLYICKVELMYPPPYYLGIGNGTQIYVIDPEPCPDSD
Experimental: (§2) Recombinant human CTLA4-Fc was diluted to 1 μg/mL in PBS and coated on a Maxisorp plate at 4° C. overnight. Plates were blocked with PBS supplemented with 3% non-fat milk at 37° C. for 1 hour. After washing, 100 μL of 3-fold serial dilutions of antibodies were added to each well. After incubation at 37° C. for 1 hour, plates were washed four times, and 100 μL HRP conjugated anti-human IgG (Fab specific) (1:6000 dilution) was added to each well. Plates were incubated at 37° C. for 1 hour, washed four times, and then 50 μL TMB substrate solution was added to each well, and the plate was incubated at room temperature. Absorbance at 450 nm was measured after the reactions were stopped with 50 μL H₂SO₄ per well. The EC₅₀ was evaluated by fitting the ELISA data using the asymmetrical sigmoidal (five-parameter logistic equation) model of GraphPad Prism 6 software.

[4] = target: T2, Recombinant human CTLA4-Fc; assay: ELISA on plate-coated recombinant human CTLA4-Fc as in Example 3 (FIG. 24A)
Experimental: as §2

[5] = target: T2, Recombinant human CTLA4-Fc; assay: ELISA on plate-coated recombinant human CTLA4-Fc, before protease cleavage, data batch 1
Experimental: as §2

[6] = target: T2, Recombinant human CTLA4-Fc; assay: ELISA on plate-coated recombinant human CTLA4-Fc, before protease cleavage, data batch 2
Experimental: as §2

[7] = target: T2, Recombinant human CTLA4-Fc; assay: ELISA on plate-coated recombinant human CTLA4-Fc, before protease cleavage, third block of Table 6 (set of FIG. 7C)
[8] = target: T2, Recombinant human CTLA4-Fc; assay: ELISA on plate-coated recombinant human CTLA4-Fc, protease cleavage experiment, no treatment
Experimental: as §2
The purified activatable antibodies were treated with the proteases which recognize the cleavage sequences, and were then tested to determine whether removal of the masking peptide restored their activity.

[9] = target: T2, Recombinant human CTLA4-Fc; assay: ELISA on plate-coated recombinant human CTLA4-Fc as in Example 3 (FIG. 25)
Experimental: as §2

B1: TY21242 (antibody, V domains shown)
VH: EVQLVESGGGLVQPGGSLRLSCAASGFSLSTGGVGVGWIRQAPGKGLEWLALIDWADDKYYSPSLKSRLTISRDNSKNTLYLQLNSLRAEDTAVYYCARGGSDTVIGDWFAYWGQGTLVTVSS
VL: DIQLTQSPSSLSASVGDRVTITCRASQSIGSYLAWYQQKPGKAPKLLIYDASNLETGVPSRFSGSGSGTDFTLTISSLQPEDFATYYCQQGYYLWTFGQGTKVEIK
notes: also called parental antibody TY21242; parental CD137 antibody
Kd [1]: 0.28 nM | masking efficiency (against parental TY21242) [2]: 1 fold

B2: TY22591 (antibody, V domains shown)
VH: B1 VH
VL: EVGSYSSTHAHCHHSPANCISSGRSAGGGGSPLGLAGSGGSDIQLTQSPSSLSASVGDRVTITCRASQSIGSYLAWYQQKPGKAPKLLIYDASNLETGVPSRFSGSGSGTDFTLTISSLQPEDFATYYCQQGYYLWTFGQGTKVEIK
notes: Full IgG4 from mammalian cells; peptide fused to the N-terminus of the light chain of TY21242
Kd [1]: 10.8 nM | masking efficiency (against parental TY21242) [2]: 38.3 fold

B3: TY22596 (antibody, V domains shown)
VH: B1 VH
VL: EVGSYYHDYDDCRVLPRRCFNSGRSAGGGGSPLGLAGSGGSDIQLTQSPSSLSASVGDRVTITCRASQSIGSYLAWYQQKPGKAPKLLIYDASNLETGVPSRFSGSGSGTDFTLTISSLQPEDFATYYCQQGYYLWTFGQGTKVEIK
notes: as for B2
Kd [1]: 5.86 nM | masking efficiency (against parental TY21242) [2]: 20.8 fold

B4: TY22594 (antibody, V domains shown)
VH: B1 VH
VL: B3 VL with Y6D, H7T, D11F, R13P, V14I, P16R, R17H, F20D, N21S
notes: as for B2
Kd [1]: 23.6 nM | masking efficiency (against parental TY21242) [2]: 83.7 fold

B5: TY22595 (antibody, V domains shown)
VH: B1 VH
VL: EVGSYNDYNYHCKWRPSRCHNSGRSAGGGGSPLGLAGSGGSDIQLTQSPSSLSASVGDRVTITCRASQSIGSYLAWYQQKPGKAPKLLIYDASNLETGVPSRFSGSGSGTDFTLTISSLQPEDFATYYCQQGYYLWTFGQGTKVEIK
notes: as for B2
Kd [1]: 107 nM | masking efficiency (against parental TY21242) [2]: 379 fold

B6: TY22599 (antibody, V domains shown)
VH: B1 VH
VL: B3 VL with Y6T, H7D, D8N, D11Y, R13P, V14R, P16R, R18K, F20Y, N21H
notes: as for B2
Kd [1]: 98.1 nM | masking efficiency (against parental TY21242) [2]: 348 fold

B7: TY22598 (antibody, V domains shown)
VH: B1 VH
VL: EVGSYSNNFASCLWRHRSCADSGRSAGGGGSPLGLAGSGGSDIQLTQSPSSLSASVGDRVTITCRASQSIGSYLAWYQQKPGKAPKLLIYDASNLETGVPSRFSGSGSGTDFTLTISSLQPEDFATYYCQQGYYLWTFGQGTKVEIK
notes: as for B2
Kd [1]: 8.61 nM | masking efficiency (against parental TY21242) [2]: 30.5 fold

B8: TY22402 (antibody, V domains shown)
VH: EVQLVESGGGLVQPGGSLRLSCAASGYSISSGYHWSWIRQAPGKGLEWLARIDWDDDKYYSTSLKSRLTISRDNSKNTLYLQLNSLRAEDTAVYYCARSYVYFDYWGQGTLVTVSS
VL: EVGSYIVHHSDCDAFYPYCDSSGRSAGGGGSPLGLAGSGGSDIQLTQSPSSLSASVGDRVTITCRASQSVRGRFLAWYQQKPGKAPKLLIYDASNRATGIPSRFSGSGSGTDFTLTISSLQPEDFATYYCQQSSSWPPTFGQGTKVEIKR
notes: IgG1 from HEK293F cells; peptide fused to the N-terminus of the light chain of TY21580; also called masking peptide B13180
masking efficiency (EC50 / EC50 of parental TY21580) [3]: 554 fold | masking efficiency (EC50 / EC50 of parental TY21580) [4]: 243 fold | masking efficiency (EC50 / EC50 of parental TY21580) [5]: 2210 fold | masking efficiency (EC50 / EC50 of parental TY21580) [6]: 377 fold

B9: TY22563 (antibody, V domains shown)
VH: B8 VH
VL: B8 VL with I6Y, V7S, H8A, H9Y, S10P, D11A, A14S, F15H, D20Q
notes: IgG1; derived from B13192 to remove a potential glycosylation site
masking efficiency (EC50 / EC50 of parental TY21580) [7]: 144 fold

B10: TY22564 (antibody, V domains shown)
VH: B8 VH
VL: B8 VL with I6Y, V7S, H8A, H9Y, S10P, D11A, A14S, F15H, D20N, S22A
notes: as for B9
masking efficiency (EC50 / EC50 of parental TY21580) [7]: 117 fold

B11: TY22775 (antibody, V domains shown)
VH: B8 VH
VL: EVGHSDCDAFYPYCDSSGRSAGGGGTPLGLAGSGGSDIQLTQSPSSLSASVGDRVTITCRASQSVRGRFLAWYQQKPGKAPKLLIYDASNRATGIPSRFSGSGSGTDFTLTISSLQPEDFATYYCQQSSSWPPTFGQGTKVEIKR
notes: TY22402 with the masking peptide shortened to 16 residues; expressed in mammalian cells; isotype not restated (parent construct IgG1)
masking efficiency (EC50 / EC50 of parental TY21580) [4]: 168 fold

B12: TY22776 (antibody, V domains shown)
VH: B8 VH
VL: B11 VL with H4S, D8V, A9P, F10Y, P12Y, Y13A, D15A, S16Y
notes: TY22404 with the masking peptide shortened to 16 residues; expressed in mammalian cells; isotype not restated (parent construct IgG1)
masking efficiency (EC50 / EC50 of parental TY21580) [4]: 296 fold

B13: TY22566 (antibody, V domains shown)
VH: B8 VH
VL: EVGSYPNPASDCVPYYYACAYSGRSAGGGGSPLGLAGSGGSDIQLTQSPSSLSASVGDRVTITCRASQSVRGRFLAWYQQKPGKAPKLLIYDASNRATGIPSRFSGSGSGTDFTLTISSLQPEDFATYYCQQSSSWPPTFGQGTKVEIKR
notes: IgG1; derived from B13197 to remove a potential glycosylation site
masking efficiency (EC50 / EC50 of parental TY21580) [7]: 489 fold

B14: TY22401 (antibody, V domains shown)
VH: B8 VH
VL: EVGSYNFVADSCPDHPYPCSASGRSAGGGGSPLGLAGSGGSDIQLTQSPSSLSASVGDRVTITCRASQSVRGRFLAWYQQKPGKAPKLLIYDASNRATGIPSRFSGSGSGTDFTLTISSLQPEDFATYYCQQSSSWPPTFGQGTKVEIKR
notes: IgG1 from HEK293F cells; masking and cleavage peptide fused to the N-terminus of the light chain of TY21580; also called masking peptide B13189
masking efficiency (EC50 / EC50 of parental TY21580) [5]: 110 fold | masking efficiency (EC50 / EC50 of parental TY21580) [6]: 48 fold

B15: TY22404 (antibody, V domains shown)
VH: B8 VH
VL: B13 VL with A9S
notes: IgG1 from HEK293F cells; peptide fused to the N-terminus of the light chain of TY21580; also called masking peptide B13197
masking efficiency (EC50 / EC50 of parental TY21580) [8]: 216 fold | masking efficiency (EC50 / EC50 of parental TY21580) [9]: 469 fold | masking efficiency (EC50 / EC50 of parental TY21580) [3]: 572 fold | masking efficiency (EC50 / EC50 of parental TY21580) [4]: 308 fold | masking efficiency (EC50 / EC50 of parental TY21580) [5]: 826 fold | masking efficiency (EC50 / EC50 of parental TY21580) [6]: 385 fold

B16: TY22565 (antibody, V domains shown)
VH: B8 VH
VL: B13 VL with N7Q, A9S
notes: as for B13
masking efficiency (EC50 / EC50 of parental TY21580) [7]: 632 fold
